Where two headings read alike, the source gives them in different places.
Tests used:
human CD47 [1] = molecular target: T1, human CD47 (human, UniProt Q08722 19-292); assay: cell ELISA, OV10 hCD47 cells
T1 construct: also called hCD47; CD47 on OV10 hCD47 cells, human RBCs, Jurkat cells and normal human cells
Protocol: OV10 hCD47 cells were grown in IMDM medium containing 10% heat inactivated fetal bovine serum (BioWest; S01520). […] Cells were washed, various concentrations of purified antibodies added in IMDM and incubated at 37° C. for 1 hr in […]. Cells were then washed with media and incubated for an additional hour at 37° C. with HRP labelled secondary anti-human antibody (Promega) diluted 1/2500 in media. Cells were washed three times with PBS, and the peroxidase substrate 3,3′, 5,5′-tetramethylbenzidine was added (Sigma; Catalog #T4444). […] The apparent binding affinities of these clones to human OV10 hCD47 cells was determined by non-linear fit (Prism GraphPad software).

human CD47 [2] = molecular target: T1, human CD47; assay: flow cytometry, human RBCs
Protocol: (§1) Binding activities of chimeric and humanized VLX4, VLX8, and VLX9 mAbs to human CD47 on hRBCs were also determined using flow cytometry.

[3] = molecular target: T2, recombinant human His-CD47 (human, UniProt Q08722 19-139); assay: ELISA, adsorbed His-CD47, pH 8
T2 construct: bought reagent; also called His-tagged human CD47 (Acro Biosystems); not shown: His tag
Protocol: (§2) Binding by soluble anti-CD47 mAbs to immobilized recombinant human CD47 and to human CD47 expressed on cells was measured in vitro. For the in vitro binding to recombinant CD47, His-CD47 (AcroBiosystems) was adsorbed to high-binding microtiter plates overnight at 4° C. The wells were washed and varying concentrations of anti-CD47 mAbs were added to the wells in buffers with a of either pH 6 or pH 8 for 1 hour. The wells were washed and then incubated with HRP-labelled secondary antibody for 1 hour at pH 6 or pH 8 followed by addition of peroxidase substrate. The apparent affinities were calculated using non-linear fit model (Graphpad Prism).

[4] = molecular target: T2, recombinant human His-CD47; assay: ELISA, adsorbed His-CD47, pH 6
Protocol: as §2

human CD47 [5] = molecular target: T1, human CD47; assay: flow cytometry on freshly isolated human RBCs, FITC-labelled donkey anti-human antibody, MFI
Protocol: FIG. 4B. Binding of VLX8 Humanized mAbs to Human RBCs. […] RBCs were incubated for 1 hr at 37° C. with various concentrations of VLX8 mAbs, washed and incubated for 1 hr with FITC-labeled donkey anti-human antibody. Cells were washed and antibody binding measured using flow cytometry.
as §1

human CD47 [6] = molecular target: T1, human CD47; assay: as above; remark: listed apart in the source
Protocol: FIG. 7. Binding of VLX9 Humanized mAbs to Human RBCs. […] RBCs were incubated for 60 minutes at 37° C. with various concentrations of VLX9 mAbs, washed and incubated for 1 hr with FITC-labelled donkey anti-human antibody. Cells were washed and antibody binding measured using flow cytometry.
as §1

human CD47 [7] = molecular target: T1, human CD47; assay: as above; remark: listed apart in the source
Protocol: FIG. 4A. Binding of VLX8 Humanized mAbs to Human RBCs. […] RBCs were incubated for 1 hr at 37° C. with various concentrations of VLX8 mAbs, washed and incubated for 1 hr with FITC-labeled donkey anti-human antibody. Cells were washed and antibody binding measured using flow cytometry.
as §1

Binder	Kd (human CD47 [1]) [nM]	Kd (human CD47 [2]) [nM]	Kd [3] [nM]	Kd [4] [nM]	EC50 (read off the curve) (human CD47 [5]) [nM]	EC50 (read off the curve) (human CD47 [6]) [nM]	EC50 (read off the curve) (human CD47 [7]) [nM]
VLX4 IgG1 (xi) (antibody, murine-human chimera, human IgG1, human kappa) heavy: not shown light: DVLMTQTPLSLPVNLGDQASISCRSRQSIVHTNGNTYLGWFLQKPGQSPKLLIYKVSNRFSGVPDRFSGSGSGTDFTLTISRVEAEDLGVYYCFQGSHVPYTFGGGTKLEIKRTVAAPSVFIFPPSDEQLKSGTASVVCLLNNFYPREAKVQWKVDNALQSGNSQESVTEQDSKDSTYSLSSTLTLSKADYEKHKVYACEVTHQGLSSPVTKSFNRGEC	0.315	0.104					
VLX9 IgG (murine) (antibody, V domains shown, murine IgG; tied through the names Vx9murH04/Vx9murL04; also called murine VLX9 antibody) VH: QVQLQQFGAELAKPGASVQMSCKASGYTFTNYWIHWVKQRPGQGLEWIGYTDPRTDYTEYNQKFKDKATLAADRSSSTAYMRLSSLTSEDSAVYYCAGGGRVGLGYWGHGSSVTVSS VL: DVFMTQTPLSLPVSLGDQASISCRSSQNIVQSNGNTYLEWYLQKPGQSPKLLIYKVFHRFSGVPDRFSGSGSGTDFTLKISRVEAEDLGVYYCFQGSHVPWTFGGGTKVEIK			0.076	0.091			
VLX8hum_07 IgG2 (antibody, V domains shown) VH: QVQLVQSGAEVKKPGSSVKVSCKASGYSFTNYYIHWVRQAPGQGLEWMGYIDPLNGDTTYNQKFKGRVTITADESTSTAYMELSSLRSEDTAVYYCARGGKRAMDYWGQGTLVTVSS VL: DIQMTQSPSSLSASVGDRVTITCRASQSISNYLNWYQQKPGKAPKLLIYYTSRLYSGVPSRFSGSGSGTDFTLTISSLQPEDFATYYCQQGNTLPWTFGQGTKVEIKR	0.46	0.671					
VLX9 IgG1 (xi) (antibody, murine-human chimera) heavy: not shown light: DVFMTQTPLSLPVSLGDQASISCRSSQNIVQSNGNTYLEWYLQKPGQSPKLLIYKVFHRFSGVPDRFSGSGSGTDFTLKISRVEAEDLGVYYCFQGSHVPWTFGGGTKVEIKRTVAAPSVFIFPPSDEQLKSGTASVVCLLNNFYPREAKVQWKVDNALQSGNSQESVTEQDSKDSTYSLSSTLTLSKADYEKHKVYACEVTHQGLSSPVTKSFNRGEC	0.28	0.381					
VLX9 IgG1 N297Q (xi) (antibody, murine-human chimera) heavy: not shown light: DVFMTQTPLSLPVSLGDQASISCRSSQNIVQSNGNTYLEWYLQKPGQSPKLLIYKVFHRFSGVPDRFSGSGSGTDFTLKISRVEAEDLGVYYCFQGSHVPWTFGGGTKVEIKRTVAAPSVFIFPPSDEQLKSGTASVVCLLNNFYPREAKVQWKVDNALQSGNSQESVTEQDSKDSTYSLSSTLTLSKADYEKHKVYACEVTHQGLSSPVTKSFNRGEC	0.275	0.19	0.135	0.099			

The remaining binders from weak to strong by Kd (human CD47 [1]), led by results:

Kd (human CD47 [1]) [nM]	Kd (human CD47 [2]) [nM]	Kd [3] [nM]	Kd [4] [nM]	EC50 (read off the curve) (human CD47 [5]) [nM]	EC50 (read off the curve) (human CD47 [6]) [nM]	EC50 (read off the curve) (human CD47 [7]) [nM]	Binder
0.88	0.742	0.137	0.13		~0.6		VLX9 IgG2 (xi) (antibody, murine-human chimera; also called VLX9 IgG2 chimera) heavy: QVQLQQFGAELAKPGASVQMSCKASGYTFTNYWIHWVKQRPGQGLEWIGYTDPRTDYTEYNQKFKDKATLAADRSSSTAYMRLSSLTSEDSAVYYCAGGGRVGLGYWGHGSSVTVSSASTKGPSVFPLAPCSRSTSESTAALGCLVKDYFPEPVTVSWNSGALTSGVHTFPAVLQSSGLYSLSSVVTVPSSNFGTQTYTCNVDHKPSNTKVDKTVERKCCVECPPCPAPPVAGPSVFLFPPKPKDTLMISRTPEVTCVVVDVSHEDPEVQFNWYVDGVEVHNAKTKPREEQFNSTFRVVSVLTVVHQDWLNGKEYKCKVSNKGLPAPIEKTISKTKGQPREPQVYTLPPSREEMTKNQVSLTCLVKGFYPSDIAVEWESNGQPENNYKTTPPMLDSDGSFFLYSKLTVDKSRWQQGNVFSCSVMHEALHNHYTQKSLSLSPGK light: DVFMTQTPLSLPVSLGDQASISCRSSQNIVQSNGNTYLEWYLQKPGQSPKLLIYKVFHRFSGVPDRFSGSGSGTDFTLKISRVEAEDLGVYYCFQGSHVPWTFGGGTKVEIKRTVAAPSVFIFPPSDEQLKSGTASVVCLLNNFYPREAKVQWKVDNALQSGNSQESVTEQDSKDSTYSLSSTLTLSKADYEKHKVYACEVTHQGLSSPVTKSFNRGEC
0.68	1.74						VLX8hum_09 IgG2 (antibody, V domains shown) VH: QVQLVQSGAEVKKPGSSVKVSCKASGYSFTNYYIHWVRQAPGQGLEWMGYIDPLNGDTTYAQKFQGRVTITADESTSTAYMELSSLRSEDTAVYYCARGGKRAMDYWGQGTLVTVSS VL: DIQMTQSPSSLSASVGDRVTITCRASQSISNYLNWYQQKPGKAPKLLIYYTSRLYSGVPSRFSGSGSGTDFTLTISSLQPEDFATYYCQQGNTLPWTFGQGTKVEIKR
0.464	0.82			~0.7			VLX8hum_08 IgG2 (antibody, V domains shown) VH: EVQLVQSGAEVKKPGESLKISCKGSGYSFTNYYIHWVRQMPGKGLEWMGYIDPLNGDTTYNQKFKGQVTISADKSISTAYLQWSSLKASDTAMYYCARGGKRAMDYWGQGTLVTVSS VL: DIQMTQSPSSLSASVGDRVTITCRASQSISNYLNWYQQKPGKAPKLLIYYTSRLYSGVPSRFSGSGSGTDFTLTISSLQPEDFATYYCQQGNTLPWTFGQGTKVEIKR
0.403	0.246						VLX8hum_06 IgG2 (antibody, V domains shown) VH: QVQLVQSGAEVKKPGASVKVSCKASGYSFTNYYIHWVRQAPGQGLEWMGYIDPLNGDTTYNQKFKGRVTMTRDTSTSTVYMELSSLRSEDTAVYYCARGGKRAMDYWGQGTLVTVSS VL: DIQMTQSPSSLSASVGDRVTITCRASQSISNYLNWYQQKPGKAPKLLIYYTSRLYSGVPSRFSGSGSGTDFTLTISSLQPEDFATYYCQQGNTLPWTFGQGTKVEIKR
0.293	0.126	0.16	0.133				VLX9 IgG4 PE (xi) (antibody, murine-human chimera) heavy: not shown light: DVFMTQTPLSLPVSLGDQASISCRSSQNIVQSNGNTYLEWYLQKPGQSPKLLIYKVFHRFSGVPDRFSGSGSGTDFTLKISRVEAEDLGVYYCFQGSHVPWTFGGGTKVEIKRTVAAPSVFIFPPSDEQLKSGTASVVCLLNNFYPREAKVQWKVDNALQSGNSQESVTEQDSKDSTYSLSSTLTLSKADYEKHKVYACEVTHQGLSSPVTKSFNRGEC
0.258	0.092						VLX4 IgG1 N297Q (xi) (antibody, murine-human chimera, human IgG1-N297Q, human kappa) heavy: not shown light: DVLMTQTPLSLPVNLGDQASISCRSRQSIVHTNGNTYLGWFLQKPGQSPKLLIYKVSNRFSGVPDRFSGSGSGTDFTLTISRVEAEDLGVYYCFQGSHVPYTFGGGTKLEIKRTVAAPSVFIFPPSDEQLKSGTASVVCLLNNFYPREAKVQWKVDNALQSGNSQESVTEQDSKDSTYSLSSTLTLSKADYEKHKVYACEVTHQGLSSPVTKSFNRGEC
0.056	0.077					~0.2	VLX8 IgG4 PE (xi) (antibody, murine-human chimera; tied through the names Vx8mur-H03/Vx8murL03 full length chains, not by an explicit VLX8 statement; also called VLX8 IgG4PE chimera) heavy: not shown light: DIQMTQTTSSLSASLGDRVTISCRASQDISNYLNWYQQKPDGTVKLLIYYTSRLYSGVPSRFSGSGSGTDYSLTISNLEQEDIATYFCQQGNTLPWTFGGGTKLEIKRTVAAPSVFIFPPSDEQLKSGTASVVCLLNNFYPREAKVQWKVDNALQSGNSQESVTEQDSKDSTYSLSSTLTLSKADYEKHKVYACEVTHQGLSSPVTKSFNRGEC
0.042	0.091						VLX8 IgG1 N297Q (xi) (antibody, murine-human chimera) heavy: not shown light: DIQMTQTTSSLSASLGDRVTISCRASQDISNYLNWYQQKPDGTVKLLIYYTSRLYSGVPSRFSGSGSGTDYSLTISNLEQEDIATYFCQQGNTLPWTFGGGTKLEIKRTVAAPSVFIFPPSDEQLKSGTASVVCLLNNFYPREAKVQWKVDNALQSGNSQESVTEQDSKDSTYSLSSTLTLSKADYEKHKVYACEVTHQGLSSPVTKSFNRGEC
